Like-named read-outs stand apart in the source and are kept apart here.
Experiments:
UGT1A1 [1] = biological target: T1, UGT1A1 (Homo sapiens, UniProt P22309); assay: UGT1A1 glucuronidation kinetics of flavonols; type: in vitro ADME; details: for Ks: substrate inhibition constant
T1 sequence (P22309 26-533): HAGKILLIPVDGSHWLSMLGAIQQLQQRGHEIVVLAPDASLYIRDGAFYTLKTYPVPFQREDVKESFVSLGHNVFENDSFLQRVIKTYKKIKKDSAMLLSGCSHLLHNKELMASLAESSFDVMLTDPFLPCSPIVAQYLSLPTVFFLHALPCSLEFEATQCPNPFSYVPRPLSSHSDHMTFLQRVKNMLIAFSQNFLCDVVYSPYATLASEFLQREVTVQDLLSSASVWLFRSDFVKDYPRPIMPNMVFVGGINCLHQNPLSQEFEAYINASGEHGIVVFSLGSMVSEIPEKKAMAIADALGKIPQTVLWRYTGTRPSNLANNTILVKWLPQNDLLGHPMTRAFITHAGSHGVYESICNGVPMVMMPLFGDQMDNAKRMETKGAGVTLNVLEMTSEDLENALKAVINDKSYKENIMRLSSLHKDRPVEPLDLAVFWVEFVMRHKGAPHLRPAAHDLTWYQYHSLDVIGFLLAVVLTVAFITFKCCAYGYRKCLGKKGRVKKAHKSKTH

UGT1A3 = biological target: T2, UGT1A3 (Homo sapiens, UniProt P35503); assay: UGT1A3 glucuronidation kinetics of flavonols; type: in vitro ADME; details: substrate inhibition constant
T2 sequence (P35503 29-534): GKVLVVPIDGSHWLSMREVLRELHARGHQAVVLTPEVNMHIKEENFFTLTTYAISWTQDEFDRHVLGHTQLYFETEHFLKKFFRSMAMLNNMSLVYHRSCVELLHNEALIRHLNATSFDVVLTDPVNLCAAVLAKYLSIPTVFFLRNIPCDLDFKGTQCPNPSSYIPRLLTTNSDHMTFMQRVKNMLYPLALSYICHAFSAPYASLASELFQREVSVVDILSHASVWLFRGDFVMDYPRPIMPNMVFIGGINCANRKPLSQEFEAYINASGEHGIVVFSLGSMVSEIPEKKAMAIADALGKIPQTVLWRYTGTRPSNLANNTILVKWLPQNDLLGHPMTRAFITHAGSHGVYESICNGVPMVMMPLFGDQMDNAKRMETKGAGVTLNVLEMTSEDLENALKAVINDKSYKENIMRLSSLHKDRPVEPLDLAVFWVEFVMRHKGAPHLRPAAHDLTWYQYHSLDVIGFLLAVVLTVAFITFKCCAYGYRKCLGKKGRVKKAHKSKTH

UGT1A10 = biological target: T3, UGT1A10 (Homo sapiens, UniProt Q9HAW8); assay: UGT1A10 glucuronidation kinetics of flavonols; type: in vitro ADME; details: substrate inhibition constant
T3 sequence (Q9HAW8 26-530): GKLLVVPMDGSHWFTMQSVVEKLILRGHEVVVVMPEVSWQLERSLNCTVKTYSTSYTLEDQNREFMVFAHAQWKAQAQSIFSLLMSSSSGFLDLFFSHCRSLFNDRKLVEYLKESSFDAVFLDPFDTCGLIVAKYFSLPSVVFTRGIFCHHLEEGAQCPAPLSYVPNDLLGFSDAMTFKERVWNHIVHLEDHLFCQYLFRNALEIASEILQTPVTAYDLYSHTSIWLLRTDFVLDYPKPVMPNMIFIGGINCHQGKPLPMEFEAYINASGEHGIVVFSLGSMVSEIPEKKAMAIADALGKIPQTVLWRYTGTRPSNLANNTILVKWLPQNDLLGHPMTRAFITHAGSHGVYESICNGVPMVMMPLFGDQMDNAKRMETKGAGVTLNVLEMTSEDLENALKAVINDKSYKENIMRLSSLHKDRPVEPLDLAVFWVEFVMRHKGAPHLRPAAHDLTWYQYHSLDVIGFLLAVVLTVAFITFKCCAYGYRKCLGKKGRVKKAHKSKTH

UGT1A7 = biological target: T4, UGT1A7 (Homo sapiens, UniProt Q9HAW7); assay: UGT1A7 glucuronidation kinetics of flavonols; type: in vitro ADME; details: formation of 3-O-glucuronide, substrate inhibition constant
T4 sequence (Q9HAW7 26-530): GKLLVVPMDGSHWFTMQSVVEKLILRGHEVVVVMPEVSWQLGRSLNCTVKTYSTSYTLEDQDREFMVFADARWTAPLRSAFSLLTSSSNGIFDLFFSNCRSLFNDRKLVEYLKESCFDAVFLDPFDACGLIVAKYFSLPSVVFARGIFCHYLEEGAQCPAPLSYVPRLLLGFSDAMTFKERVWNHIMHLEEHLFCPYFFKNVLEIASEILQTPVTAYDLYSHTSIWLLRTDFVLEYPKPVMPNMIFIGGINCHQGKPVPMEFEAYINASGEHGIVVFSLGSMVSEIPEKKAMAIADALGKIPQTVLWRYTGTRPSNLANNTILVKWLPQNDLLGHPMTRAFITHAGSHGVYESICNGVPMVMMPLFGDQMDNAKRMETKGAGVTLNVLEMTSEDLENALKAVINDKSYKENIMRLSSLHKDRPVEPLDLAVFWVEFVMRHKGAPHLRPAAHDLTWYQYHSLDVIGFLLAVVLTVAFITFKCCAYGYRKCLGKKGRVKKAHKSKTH

UGT1A9 = biological target: T5, UGT1A9 (Homo sapiens, UniProt O60656); assay: UGT1A9 glucuronidation kinetics of flavonols; type: in vitro ADME
T5 sequence (O60656 26-530): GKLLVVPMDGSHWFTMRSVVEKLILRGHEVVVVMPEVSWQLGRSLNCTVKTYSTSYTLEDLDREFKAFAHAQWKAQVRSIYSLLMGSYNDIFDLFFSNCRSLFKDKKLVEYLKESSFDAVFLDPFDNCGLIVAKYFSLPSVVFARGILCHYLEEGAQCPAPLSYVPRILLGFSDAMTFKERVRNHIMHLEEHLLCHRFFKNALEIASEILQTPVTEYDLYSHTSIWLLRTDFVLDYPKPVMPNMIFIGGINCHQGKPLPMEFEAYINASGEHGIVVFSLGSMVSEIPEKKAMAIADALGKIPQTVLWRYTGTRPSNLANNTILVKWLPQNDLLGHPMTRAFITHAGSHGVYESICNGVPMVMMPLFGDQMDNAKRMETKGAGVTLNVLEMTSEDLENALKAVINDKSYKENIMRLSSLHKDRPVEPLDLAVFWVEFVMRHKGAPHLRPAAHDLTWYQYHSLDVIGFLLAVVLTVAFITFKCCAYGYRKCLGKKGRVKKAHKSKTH

UGT1A1 [2] = biological target: T1, UGT1A1; details: cited from earlier work
[3] = substrate: O=c1c(O)c(-c2ccc(O)cc2)oc2cc(O)cc(O)c12; assay: UGT1A1 glucuronidation kinetics of flavonols; type: in vitro ADME, human; details: other: UGT1A1; formation of 7-O-glucuronide; pH 6.5
[4] = substrate: O=c1c(O)c(-c2ccc(O)cc2)oc2cc(O)ccc12; assay: UGT1A1 glucuronidation kinetics of flavonols; type: in vitro ADME, human; details: other: UGT1A1, pH 6.5
[5] = substrate: O=c1c(O)c(-c2ccccc2)oc2cc(O)cc(O)c12; assay: UGT1A1 glucuronidation kinetics of flavonols; type: in vitro ADME, human; details: other: UGT1A1, pH 6.5
[6] = substrate: O=c1c(O)c(-c2ccccc2)oc2cc(O)ccc12; assay: UGT1A1 glucuronidation kinetics of flavonols; type: in vitro ADME, human; details: other: UGT1A1, pH 6.5
[7] = substrate: O=c1c(O)c(-c2ccc(O)cc2)oc2cc(O)cc(O)c12; assay: UGT1A3 glucuronidation kinetics of flavonols; type: in vitro ADME, human; details: other: UGT1A3; formation of 7-O-glucuronide; pH 6.5
[8] = substrate: O=c1c(O)c(-c2ccccc2)oc2cc(O)cc(O)c12; assay: UGT1A3 glucuronidation kinetics of flavonols; type: in vitro ADME, human; details: other: UGT1A3, pH 6.5
[9] = substrate: O=c1c(O)c(-c2ccccc2)oc2cc(O)ccc12; assay: UGT1A3 glucuronidation kinetics of flavonols; type: in vitro ADME, human; details: other: UGT1A3, pH 6.5

O=c1c(O)c(-c2ccc(O)cc2)oc2cc(O)cc(O)c12 [3,5,7,4’QHF, 3,5,7,4’-tetrahydroxyflavone]
Ks (UGT1A1 [1]; formation of 7-O-glucuronide): 2.81 ± 0.67 µM
Ks (UGT1A3; formation of 7-O-glucuronide): 7.52 ± 9.58 µM
Ks (UGT1A10; formation of 3-O-glucuronide): 30.01 ± 8.00 µM
Ks (UGT1A10; formation of 7-O-glucuronide): 51.37 ± 27.15 µM

O=c1c(O)c(-c2ccccc2)oc2cc(O)ccc12 [3,7DHF, 3,7-dihydroxyflavone]
Ks/Km ratio (UGT1A1 [1]; 3-O-glucuronidation): 0.38
Ks/Km ratio (UGT1A1 [1]; 7-O-glucuronidation): 1.16
Vmax (UGT1A1 [1]; formation of 3-O-glucuronide): 1.02 nmol/mg/min
Ks (UGT1A1 [1]; formation of 3-O-glucuronide): 0.60 ± 0.38 µM
Vmax (UGT1A1 [1]; formation of 7-O-glucuronide): 3.04 nmol/mg/min
Ks (UGT1A1 [1]; formation of 7-O-glucuronide): 1.21 ± 0.23 µM
Ks (UGT1A3; formation of 3-O-glucuronide): 100.05 ± 94.80 µM
Ks (UGT1A3; formation of 7-O-glucuronide): 50.00 ± 80.17 µM
Ks (UGT1A7): 309.17 ± 127.39 µM
Ks (UGT1A9; formation of 3-O-glucuronide, substrate inhibition constant): 30.13 ± 7.11 µM
Vmax (UGT1A9; formation of 7-O-glucuronide): 2.04 nmol/mg/min

C#C[C@]1(O)CC[C@H]2[C@@H]3CCc4cc(O)ccc4[C@H]3CC[C@@]21C [ethinylestradiol]
Km (UGT1A1 [2]; reported value): 49.8 µM
Ks/Km ratio (UGT1A1 [2]; substrate inhibition at high concentrations of UDPGA): 1.61

B1: UGT1A1 (Homo sapiens) (protein)
chain: T1 sequence (P22309 26-533)
Km [3]: 0.13 ± 0.03 µM
Vmax [3]: 1.38 ± 0.14 nmol/mg/min
Vmax/Km [3]: 10620 µL/min/mg
Km ([4]; formation of 3-O-glucuronide): 0.30 ± 0.05 µM
Vmax ([4]; formation of 3-O-glucuronide): 0.68 ± 0.05 nmol/mg/min
Vmax/Km ([4]; formation of 3-O-glucuronide): 2270 µL/min/mg
Km ([4]; formation of 7-O-glucuronide): 0.43 ± 0.10 µM
Vmax ([4]; formation of 7-O-glucuronide): 1.08 ± 0.13 nmol/mg/min
Vmax/Km ([4]; formation of 7-O-glucuronide): 2520 µL/min/mg
Km ([5]; formation of 3-O-glucuronide): 0.31 ± 0.10 µM
Vmax ([5]; formation of 3-O-glucuronide): 0.82 ± 0.14 nmol/mg/min
Vmax/Km ([5]; formation of 3-O-glucuronide): 2650 µL/min/mg
Km ([5]; formation of 7-O-glucuronide): 0.51 ± 0.08 µM
Vmax ([5]; formation of 7-O-glucuronide): 4.59 ± 0.46 nmol/mg/min
Vmax/Km ([5]; formation of 7-O-glucuronide): 9000 µL/min/mg
Km ([6]; formation of 3-O-glucuronide): 1.57 ± 1.09 µM
Vmax ([6]; formation of 3-O-glucuronide): 1.02 ± 0.54 nmol/mg/min
Vmax/Km ([6]; formation of 3-O-glucuronide): 650 µL/min/mg
Km ([6]; formation of 7-O-glucuronide): 1.04 ± 0.19 µM
Vmax ([6]; formation of 7-O-glucuronide): 3.04 ± 0.42 nmol/mg/min
Vmax/Km ([6]; formation of 7-O-glucuronide): 2920 µL/min/mg

B2: UGT1A3 (Homo sapiens) (protein)
chain: T2 sequence (P35503 29-534)
Km [7]: 3.30 ± 3.10 µM
Vmax [7]: 0.86 ± 0.35 nmol/mg/min
Vmax/Km [7]: 260 µL/min/mg
Km ([8]; formation of 3-O-glucuronide): 0.84 ± 0.18 µM
Vmax ([8]; formation of 3-O-glucuronide): 0.17 ± 0.01 nmol/mg/min
Vmax/Km ([8]; formation of 3-O-glucuronide): 200 µL/min/mg
Km ([8]; formation of 7-O-glucuronide): 2.12 ± 1.24 µM
Vmax ([8]; formation of 7-O-glucuronide): 3.44 ± 0.84 nmol/mg/min
Vmax/Km ([8]; formation of 7-O-glucuronide): 1620 µL/min/mg
Km ([9]; formation of 3-O-glucuronide): 8.81 ± 2.72 µM
Vmax ([9]; formation of 3-O-glucuronide): 0.18 ± 0.02 nmol/mg/min
Vmax/Km ([9]; formation of 3-O-glucuronide): 20 µL/min/mg
Km ([9]; formation of 7-O-glucuronide): 7.02 ± 3.76 µM
Vmax ([9]; formation of 7-O-glucuronide): 1.89 ± 0.36 nmol/mg/min
Vmax/Km ([9]; formation of 7-O-glucuronide): 270 µL/min/mg
